Assay results: patent publication US20220220224A1 (Hoffmann-La Roche, published 2022)
Numbering of substitutions follows the chain as printed. Numbers in names are those of the source.

B1: 16D5 IgG variant S35H/wt (HC/LC) (antibody, V domains shown)
VH: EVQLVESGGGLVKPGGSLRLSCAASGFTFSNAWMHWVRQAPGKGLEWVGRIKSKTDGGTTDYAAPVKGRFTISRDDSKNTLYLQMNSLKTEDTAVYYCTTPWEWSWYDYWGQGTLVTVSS
VL: QAVVTQEPSLTVSPGGTVTLTCGSSTGAVTTSNYANWVQEKPGQAFRGLIGGTNKRAPGTPARFSGSLLGGKAALTLSGAQPEDEAEYYCALWYSNLWVFGGGTKLTVL
notes: IgG
B2: 16D5 IgG variant S35H/K53A (HC/LC) (antibody, V domains shown)
VH: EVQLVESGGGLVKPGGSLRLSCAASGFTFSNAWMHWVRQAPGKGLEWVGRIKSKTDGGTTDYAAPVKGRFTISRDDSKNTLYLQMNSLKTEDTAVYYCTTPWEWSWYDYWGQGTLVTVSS
VL: B1 VL with A2T, E40Q, F46P, K55A, A80V
notes: IgG
B3: 16D5 IgG variant G49S/K53A (HC/LC) (antibody, V domains shown)
VH: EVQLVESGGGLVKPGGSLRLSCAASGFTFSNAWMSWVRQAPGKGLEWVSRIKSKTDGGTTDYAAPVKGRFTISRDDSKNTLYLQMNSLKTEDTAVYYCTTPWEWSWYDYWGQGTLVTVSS
VL: B1 VL with A2T, E40Q, F46P, K55A, A80V
notes: IgG
B4: 16D5 IgG variant R50S/K53A (HC/LC) (antibody, V domains shown)
VH: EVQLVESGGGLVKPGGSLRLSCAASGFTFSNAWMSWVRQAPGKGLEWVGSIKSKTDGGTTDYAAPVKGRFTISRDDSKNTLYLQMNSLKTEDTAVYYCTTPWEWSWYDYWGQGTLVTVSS
VL: B1 VL with A2T, E40Q, F46P, K55A, A80V
notes: IgG
B5: 16D5 IgG variant S35H/S93A (HC/LC) (antibody, V domains shown)
VH: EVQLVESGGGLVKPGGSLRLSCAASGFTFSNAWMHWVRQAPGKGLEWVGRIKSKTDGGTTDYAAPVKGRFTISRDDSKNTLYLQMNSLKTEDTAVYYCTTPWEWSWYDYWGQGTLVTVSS
VL: B1 VL with A2T, E40Q, F46P, A80V, S95A
notes: IgG
B6: 16D5 IgG variant G49S/S93A (HC/LC) (antibody, V domains shown)
VH: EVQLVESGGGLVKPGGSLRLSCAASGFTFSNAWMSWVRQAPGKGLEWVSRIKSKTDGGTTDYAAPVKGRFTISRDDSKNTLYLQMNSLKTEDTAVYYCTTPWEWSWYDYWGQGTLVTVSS
VL: B1 VL with A2T, E40Q, F46P, A80V, S95A
notes: IgG
B7: 16D5 IgG variant W96Y/wt (HC/LC) (antibody, V domains shown)
VH: not shown
VL: B1 VL
notes: IgG
B8: 16D5 IgG variant R50S/S93A (HC/LC) (antibody, V domains shown)
VH: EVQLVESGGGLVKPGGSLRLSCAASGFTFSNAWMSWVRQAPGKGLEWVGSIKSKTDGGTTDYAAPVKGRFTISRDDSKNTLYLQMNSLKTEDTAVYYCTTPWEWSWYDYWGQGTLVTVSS
VL: B1 VL with A2T, E40Q, F46P, A80V, S95A
notes: IgG
B9: 16D5 IgG variant W96Y/S93A (HC/LC) (antibody, V domains shown)
VH: not shown
VL: B1 VL with A2T, E40Q, F46P, A80V, S95A
notes: IgG
B10: 15H7 IgG (antibody, V domains shown)
VH: QVQLVQSGAEVKKPGASVKVSCKASGYTFTSYYMHWVRQAPGQGLEWMGIINPSGGSTSYAQKFQGRVTMTRDTSTSTVYMELSSLRSEDTAVYYCARNYYLFSTSFDYWGQGTLVTVSS
VL: B1 VL
notes: human IgG1
B11: 18D3 IgG (antibody, V domains shown)
VH: QVQLVQSGAEVKKPGASVKVSCKASGYTFTSYYMHWVRQAPGQGLEWMGIINPSGGSTSYAQKFQGRVTMTRDTSTSTVYMELSSLRSEDTAVYYCARNYYTGGSSAFDYWGQGTLVTVS
VL: B1 VL
notes: human IgG1
B12: 16A3 IgG (antibody, V domains shown)
VH: B10 VH with L102A, F103G, S104V, S106P
VL: B1 VL
notes: human IgG1
B13: 21D1 IgG (antibody, V domains shown)
VH: B10 VH with L102V, F103G, S104V, T105S, S106P
VL: B1 VL
notes: human IgG1
B14: 15H7 Fab (Fab, V domains shown)
VH: B10 VH
VL: B1 VL
notes: bacterial Fab
B15: 19E5 Fab (Fab, V domains shown)
VH: B10 VH with N99G, Y100E, Y101W, L102R, F103R, S104Y
VL: B1 VL
notes: bacterial Fab

target: T1, recombinant biotinylated monomeric Fc fusion of human Folate Receptor 1 (huFolR1 ECD-AcTev-Fcknob-Avi tag … (human, UniProt P0DOX5 223-449 = IgG part, biotin on the C-terminal Avi tag)); assay: SPR Biacore, avidity (bivalent, apparent KD), antigen-Fc on SA chip
T1 construct: also called huFolR1-Fc; human FolR1-Fc
Description: (§1) The avidity of the interaction between the anti-FolR1 IgGs or T cell bispecifics and the recombinant folate receptors was determined as described below (Table 41).
(§2) Recombinant biotinylated monomeric Fc fusions of human, cynomolgus and murine Folate Receptor 1 (FolR1-Fc) were directly coupled on a SA chip using the standard coupling instruction (Biacore, Freiburg/Germany). The immobilization level was about 300. […] The dissociation was monitored for 240 or 600 seconds. Bulk refractive index differences were corrected for by subtracting the response obtained on reference flow cell immobilized with recombinant biotinylated murine IL2 receptor Fc fusion. The binding curves resulting from the bivalent binding of the IgG or T cell bispecifics were approximated to a 1:1 Langmuir binding (even though it is a 1:2 binding) and fitted with that model to get an apparent KD representing the avidity of the bivalent binding. The apparent avidity constants for the interactions were derived from the rate constants of the fitting using the Bia Evaluation software (GE Healthcare). For low affinity kinetics with association and dissociation phases too fast to be fitted by the 1:1 Langmuir binding model, the steady state analysis model was applied using the Bia Evaluation software (GE Healthcare). The steady state analysis gives the KD of the binding reaction at equilibrium.

| Binder | Kd | koff | kon |
| --- | --- | --- | --- |
| B1 | 40 nM | 0.00568 s⁻¹ | 132000 M⁻¹ s⁻¹ |
| B2 | 1400 nM | 0.0291 s⁻¹ | 21000 M⁻¹ s⁻¹ |
| B3 | 60 nM | 0.0115 s⁻¹ | 190000 M⁻¹ s⁻¹ |
| B4 | 60 nM | 0.0197 s⁻¹ | 328000 M⁻¹ s⁻¹ |
| B5 | 90 nM | 0.022 s⁻¹ | 243000 M⁻¹ s⁻¹ |
| B6 | 20 nM | 0.00306 s⁻¹ | 152000 M⁻¹ s⁻¹ |
| B7 | 20 nM | 0.00213 s⁻¹ | 129000 M⁻¹ s⁻¹ |
| B8 | 30 nM | 0.00323 s⁻¹ | 125000 M⁻¹ s⁻¹ |
| B9 | 30 nM | 0.0189 s⁻¹ | 655000 M⁻¹ s⁻¹ |

target: T2, recombinant biotinylated monomeric Fc fusion of cynomolgus Folate Receptor 1 (cy FolR1 ECD-AcTev-Fcknob-Avi … (cynomolgus, UniProt P0DOX5 223-449 = IgG part, biotin on the C-terminal Avi tag)); assay: as above
T2 construct: also called cyFolR1-Fc; cyno FolR1
Description: as §1, §2

| Binder | Kd | koff | kon |
| --- | --- | --- | --- |
| B1 | 55 nM | 0.0124 s⁻¹ | 223000 M⁻¹ s⁻¹ |
| B2 | 1100 nM | 0.0404 s⁻¹ | 34700 M⁻¹ s⁻¹ |
| B3 | 80 nM | 0.0328 s⁻¹ | 393000 M⁻¹ s⁻¹ |
| B4 | 80 nM | 0.0455 s⁻¹ | 550000 M⁻¹ s⁻¹ |
| B5 | 110 nM | 0.0677 s⁻¹ | 612000 M⁻¹ s⁻¹ |
| B6 | 20 nM | 0.00622 s⁻¹ | 358000 M⁻¹ s⁻¹ |
| B7 | 10 nM | 0.00211 s⁻¹ | 173000 M⁻¹ s⁻¹ |
| B8 | 20 nM | 0.0078 s⁻¹ | 439000 M⁻¹ s⁻¹ |
| B9 | 30 nM | 0.0174 s⁻¹ | 625000 M⁻¹ s⁻¹ |

target: T3, recombinant biotinylated monomeric Fc fusion of human Folate Receptor 2 (hu FolR2 ECD-AcTev-Fcknob-Avi tag … (human, UniProt P0DOX5 223-449 = IgG part, biotin on the C-terminal Avi tag)); assay: SPR Biacore, single injection on immobilized antigen-Fc
T3 construct: also called FolR2-Fc
Description: (§3) Binding of FolR1 binders as IgG or in the T-cell bispecific format to different recombinant folate receptors (human FolR1, 2 and 3, murine FolR1 and cynomolgus FolR1; all as Fc fusions) was assessed by surface plasmon resonance (SPR). All SPR experiments were performed on a Biacore T200 at 25° C. with HBS-EP as running buffer (0.01 M HEPES pH 7.4, 0.15 M NaCl, 3 mM EDTA, 0.005% Surfactant P20, Biacore, Freiburg/Germany).
(§4) First the anti-FolR1 IgGs were analyzed by single injections (Table 1) to characterize their crossreactivity (to human, murine and cyno FolR1) and specificity (to human FolR1, human FolR2, human FolR3). Recombinant biotinylated monomeric Fc fusions of human, cynomolgus and murine Folate Receptor 1 (FolR1-Fc) or human Folate Receptor 2 and 3 (FolR2-Fc, FolR3-Fc) were directly coupled on a SA chip using the standard coupling instruction (Biacore, Freiburg/Germany). The immobilization level was about 300-400 RU. The IgGs were injected for 60 seconds at a concentration of 500 nM.

| Binder | binding result |
| --- | --- |
| B10 | no binding (tested: 500 nM) |
| B11 | no binding (tested: 500 nM) |
| B12 | no binding (tested: 500 nM) |
| B13 | no binding (tested: 500 nM) |

target: T4, recombinant biotinylated monomeric Fc fusion of human Folate Receptor 3 (hu FolR3 ECD-AcTev-Fcknob-Avi tag … (human, UniProt P0DOX5 223-449 = IgG part, biotin on the C-terminal Avi tag)); assay: as above
T4 construct: also called FolR3-Fc
Description: as §3, §4

| Binder | binding result |
| --- | --- |
| B10 | no binding (tested: 500 nM) |
| B11 | no binding (tested: 500 nM) |
| B12 | no binding (tested: 500 nM) |
| B13 | no binding (tested: 500 nM) |

target: T3, recombinant biotinylated monomeric Fc …; assay: SPR ProteOn, Fab analyte on immobilized antigen-Fc
Description: (§5) Immobilization of antigens (ligand): Recombinant antigens were diluted with PBST (10 mM phosphate, 150 mM sodium chloride pH 7.4, 0.005% Tween 20) to 10 μg/ml, then injected at 30 μl/minute in vertical orientation. Injection of analytes: For ‘one-shot kinetics’ measurements, injection direction was changed to horizontal orientation, two-fold dilution series of purified Fab (varying concentration ranges) were injected simultaneously along separate channels 1-5, with association times of 200 s, and dissociation times of 600 s. Buffer (PBST) was injected along the sixth channel to provide an “in-line” blank for referencing. Association rate constants (kₒₙ) and dissociation rate constants (koff) were calculated using a simple one-to-one Langmuir binding model in ProteOn Manager v3.1 software by simultaneously fitting the association and dissociation sensorgrams. The equilibrium dissociation constant (KD) was calculated as the ratio koff/kₒₙ.

| Binder | binding result |
| --- | --- |
| B14 | no binding |

target: T2, recombinant biotinylated monomeric Fc …; assay: SPR ProteOn, Fab analyte on immobilized antigen-Fc
Description: as §5

| Binder | Kd |
| --- | --- |
| B14 | 72.5 nM |
| B15 | 276 nM |

target: T4, recombinant biotinylated monomeric Fc …; assay: SPR ProteOn, Fab analyte on immobilized antigen-Fc
Description: as §5

| Binder | binding result |
| --- | --- |
| B14 | no binding |

target: T1, recombinant biotinylated monomeric Fc …; assay: SPR Biacore, affinity (monovalent), antibody captured via anti-Fab
Description: The affinity of the interaction between the anti-FolR1 IgGs or the T cell bispecifics and the recombinant folate receptors was determined as described below (Table 42).
For affinity measurement, direct coupling of around 10000 resonance units (RU) of the anti-human Fab specific antibody (Fab capture kit, GE Healthcare) was performed on a CM5 chip at pH 5.0 using the standard amine coupling kit (GE Healthcare). Anti-FolR1 IgGs or T cell bispecifics were captured at 200 nM with a flow rate of 10 ul/min for 40 sec, the reference flow cell was left without capture. Dilution series (12.35 to 3000 nM) of human Folate Receptor 1 Fc fusion were passed on all flow cells at 30 μl/min for 240 sec to record the association phase. The dissociation phase was monitored for 300 s and triggered by switching from the sample solution to HBS-EP. The chip surface was regenerated after every cycle using a double injection of 60 sec 10 mM Glycine-HCl pH 1.5. Bulk refractive index differences were corrected for by subtracting the response obtained on the reference flow cell 1. The affinity constants for the interactions were derived from the rate constants by fitting to a 1:1 Langmuir binding using the Bia Evaluation software (GE Healthcare).

| Binder | Kd | koff | kon |
| --- | --- | --- | --- |
| B1 | 1200 nM | 0.0113 s⁻¹ | 8960 M⁻¹ s⁻¹ |
| B3 | 1900 nM | 0.0174 s⁻¹ | 9190 M⁻¹ s⁻¹ |
| B4 | 1800 nM | 0.0245 s⁻¹ | 13500 M⁻¹ s⁻¹ |
| B5 | 1300 nM | 0.0112 s⁻¹ | 8430 M⁻¹ s⁻¹ |
| B6 | 760 nM | 0.00799 s⁻¹ | 10500 M⁻¹ s⁻¹ |
| B7 | 550 nM | 0.00544 s⁻¹ | 9950 M⁻¹ s⁻¹ |
| B8 | 780 nM | 0.0123 s⁻¹ | 15700 M⁻¹ s⁻¹ |
| B9 | 420 nM | 0.0172 s⁻¹ | 40500 M⁻¹ s⁻¹ |
